Results from US20230340137A1, “METHODS, THERAPIES AND USES FOR TREATING CANCER” (PFIZER INC., priority 2020, published 2023).

How the values were obtained:
RPMI8226-luc cells = experiment: BCMAxCD3 mediated cell killing with human T cells, with or without GSI (luciferase viability); format: cell-based; conditions: with or without 1 μM GSI, 60 hours
Procedure: (§1) CD3^+ T cells from PBMCs (Stem Cell Technologies) were negatively selected using EasySep Human T cell enrichment kit (Stem Cell Technologies). Multiple myeloma cells expressing luciferase (MM.1S-luc, OPM2-luc, H929-luc, Molp8-luc, RPMI8226-luc) were treated with 1 μM GSI […]. After 24 hours, cells were seeded with 50,000 CD3^+ pan T cells in a clear 96-well V-bottom plate. Cells were further treated with a range of BCMAxCD3 bispecific antibody concentrations with or without 1 μM GSI. 60 hours after treatment, luciferase activity in treated cells was analyzed using NeoLite reagent kit (Perkin Elmer) and acquired on VictorX multimode plate reader (Perkin Elmer). Cell viability was calculated by dividing luciferase activity of treated cells over luciferase activity of untreated control (no BCMAxCD3 bispecific antibody added).

Molp8-luc cells = experiment: as above; format: cell-based; conditions: with or without 1 μM GSI, 60 hours
Procedure: as §1

MM.1S-luc cells = experiment: as above; format: cell-based; conditions: with or without 1 μM GSI, 60 hours
Procedure: as §1

OPM2-luc cells = experiment: as above; format: cell-based; conditions: with or without 1 μM GSI, 60 hours
Procedure: as §1

H929-luc cells = experiment: as above; format: cell-based; conditions: with or without 1 μM GSI, 60 hours
Procedure: as §1

[1] = Phase 1 clinical study NCT03269136, preliminary pharmacokinetic analysis; format: in vivo, human; conditions: preliminary pharmacokinetic (PK) analysis
Procedure: Therefore, a fixed dose is suitable for the dosing of PF-06863135. Based on the encouraging efficacy data and safety data obtained from Part I of Study, a promising RP2D for Part 2A of the study could be a fixed dose equivalent of 1000 μg/kg (ie, 76 mg) of PF-06863135 either in Q1W or Q2W. A fixed dose equivalent of 600 μg/kg (ie, 44 mg) will likely be used as a priming dose on cycle zero day 1. The initial dose of 44 mg serves as a priming dose and is designed to mitigate the CRS symptoms of the later 76 mg dose. […] Subsequently, the 44 mg (priming) and 76 mg (maintenance) were selected as the single agent RP2D dose. Patient will be administered a single priming dose of 44 mg SC of PF06863135, followed by maintenance dosing of 76 mg Q1W SC or 76 mg Q2W starting 7 days after the single priming dose.

PF-06863135: heterodimeric humanized full-length bispecific antibody, one BCMA binding arm and one CD3 binding arm, modified human IgG2Δa Fc
RPMI8226 cell viability (RPMI8226-luc cells; BCMA × CD3 0.00064 nM): 113.2 ± 10.6 % control | RPMI8226 cell viability (RPMI8226-luc cells; BCMA × CD3 0.0032 nM): 130.5 ± 19.5 % control | RPMI8226 cell viability (RPMI8226-luc cells; BCMA × CD3 0.016 nM): 113.4 ± 1.3 % control | RPMI8226 cell viability (RPMI8226-luc cells; BCMA × CD3 0.08 nM): 54.2 ± 16.9 % control | RPMI8226 cell viability (RPMI8226-luc cells; BCMA × CD3 0.4 nM): 28.7 ± 13.6 % control | RPMI8226 cell viability (RPMI8226-luc cells; BCMA × CD3 2 nM): 25.7 ± 5.5 % control | RPMI8226 cell viability (RPMI8226-luc cells; BCMA × CD3 10 nM): 19.9 ± 1.1 % control | RPMI8226 cell viability (RPMI8226-luc cells; BCMA × CD3 50 nM): 19.4 ± 5^ % control | Molp8 cell viability (Molp8-luc cells; BCMAxCD3 0.00001 nM): 64 ± 11.6 % control | Molp8 cell viability (Molp8-luc cells; BCMAxCD3 0.00005 nM): 59.1 ± 4.6 % control | Molp8 cell viability (Molp8-luc cells; BCMAxCD3 0.00026 nM): 58.5 ± 0.6 % control | Molp8 cell viability (Molp8-luc cells; BCMAxCD3 0.00128 nM): 66.7 ± 0.3 % control | Molp8 cell viability (Molp8-luc cells; BCMAxCD3 0.0064 nM): 55.2 ± 1.3 % control | Molp8 cell viability (Molp8-luc cells; BCMAxCD3 0.032 nM): 66.1 ± 4.9 % control | Molp8 cell viability (Molp8-luc cells; BCMAxCD3 0.16 nM): 8 ± 2 % control | Molp8 cell viability (Molp8-luc cells; BCMAxCD3 0.8 nM): 6.1 ± 0.7 % control | Molp8 cell viability (Molp8-luc cells; BCMAxCD3 4 nM): 5.2 ± 0.3 % control | MM.1S cell viability (MM.1S-luc cells; BCMAxCD3 0.00001 nM): 80.6 ± 3.9 % control | MM.1S cell viability (MM.1S-luc cells; BCMAxCD3 0.00005 nM): 79.8 ± 2.9 % control | MM.1S cell viability (MM.1S-luc cells; BCMAxCD3 0.00026 nM): 78 ± 0.9 % control | MM.1S cell viability (MM.1S-luc cells; BCMAxCD3 0.00128 nM): 87.7 ± 4.4 % control | MM.1S cell viability (MM.1S-luc cells; BCMAxCD3 0.0064 nM): 108 ± 4.5 % control | MM.1S cell viability (MM.1S-luc cells; BCMAxCD3 0.032 nM): 2.5 ± 0.3 % control | MM.1S cell viability (MM.1S-luc cells; BCMAxCD3 0.16 nM): 1.7 ± 0.8 % control | MM.1S cell viability (MM.1S-luc cells; BCMAxCD3 0.8 nM): 2.4 ± 0.5 % control | MM.1S cell viability (MM.1S-luc cells; BCMAxCD3 4 nM): 1.3 ± 0.8 % control | OPM2 cell viability (OPM2-luc cells; BCMA × CD3 0.00064 nM): 83.8 ± 3.4 % control | OPM2 cell viability (OPM2-luc cells; BCMA × CD3 0.0032 nM): 84.3 ± 3.1 % control | OPM2 cell viability (OPM2-luc cells; BCMA × CD3 0.016 nM): 68.4 ± 2.4 % control | OPM2 cell viability (OPM2-luc cells; BCMA × CD3 0.08 nM): 43.6 ± 6.4 % control | OPM2 cell viability (OPM2-luc cells; BCMA × CD3 0.4 nM): 3.1 ± 0.8 % control | OPM2 cell viability (OPM2-luc cells; BCMA × CD3 2 nM): 2.8 ± 0.8 % control | OPM2 cell viability (OPM2-luc cells; BCMA × CD3 10 nM): 2 ± 0.2 % control | OPM2 cell viability (OPM2-luc cells; BCMA × CD3 50 nM): 3.3 ± 0.3 % control | H929 cell viability (H929-luc cells; BCMAxCD3 0.00001 nM): 80.2 ± 0.3 % control | H929 cell viability (H929-luc cells; BCMAxCD3 0.00005 nM): 81.1 ± 0.2 % control | H929 cell viability (H929-luc cells; BCMAxCD3 0.00026 nM): 79 ± 0.8 % control | H929 cell viability (H929-luc cells; BCMAxCD3 0.00128 nM): 77.8 ± 3.3 % control | H929 cell viability (H929-luc cells; BCMAxCD3 0.0064 nM): 81.2 ± 3 % control | H929 cell viability (H929-luc cells; BCMAxCD3 0.032 nM): 98.6 ± 1.2 % control | H929 cell viability (H929-luc cells; BCMAxCD3 0.16 nM): 23.2 ± 7.2 % control | H929 cell viability (H929-luc cells; BCMAxCD3 0.8 nM): 11.3 ± 1.5 % control | H929 cell viability (H929-luc cells; BCMAxCD3 4 nM): 8.6 ± 3 % control | body weight as factor on PF-06863135 exposure [1]: not a clinically relevant factor
